Assay results taken from paper PMC10201424, “Biochemical characterisation of Mer3 helicase interactions and the protection of meiotic recombination intermediates” (Nucleic Acids Research, 2022).

How the values were obtained:
MBP-Mlh1;MBP-Mlh2 = biological target: T1, MBP-Mlh1;MBP-Mlh2 (Saccharomyces cerevisiae;Saccharomyces …, UniProt P38920;Q07980 1-769;1-695, |); test: EMSA; robust binding; EMSA: 25 mM HEPES pH 7.5, 0.1 ug/ul BSA, 60 mM NaCl, 10 nM DNA, 20 min at 30 C; 0.8% agarose in 1x TAE; Mer3 37.5-300 nM, Mlh1-Mlh2 20-150 nM; conditions: protein: recombinant;recombinant; tags: N-terminal 6xHis-MBP;N-terminal 6xHis-MBP; copies: 1;1; label: 5'-FAM on strand 1; synthetic D-loop of 4 annealed oligos
T1 sequence 1: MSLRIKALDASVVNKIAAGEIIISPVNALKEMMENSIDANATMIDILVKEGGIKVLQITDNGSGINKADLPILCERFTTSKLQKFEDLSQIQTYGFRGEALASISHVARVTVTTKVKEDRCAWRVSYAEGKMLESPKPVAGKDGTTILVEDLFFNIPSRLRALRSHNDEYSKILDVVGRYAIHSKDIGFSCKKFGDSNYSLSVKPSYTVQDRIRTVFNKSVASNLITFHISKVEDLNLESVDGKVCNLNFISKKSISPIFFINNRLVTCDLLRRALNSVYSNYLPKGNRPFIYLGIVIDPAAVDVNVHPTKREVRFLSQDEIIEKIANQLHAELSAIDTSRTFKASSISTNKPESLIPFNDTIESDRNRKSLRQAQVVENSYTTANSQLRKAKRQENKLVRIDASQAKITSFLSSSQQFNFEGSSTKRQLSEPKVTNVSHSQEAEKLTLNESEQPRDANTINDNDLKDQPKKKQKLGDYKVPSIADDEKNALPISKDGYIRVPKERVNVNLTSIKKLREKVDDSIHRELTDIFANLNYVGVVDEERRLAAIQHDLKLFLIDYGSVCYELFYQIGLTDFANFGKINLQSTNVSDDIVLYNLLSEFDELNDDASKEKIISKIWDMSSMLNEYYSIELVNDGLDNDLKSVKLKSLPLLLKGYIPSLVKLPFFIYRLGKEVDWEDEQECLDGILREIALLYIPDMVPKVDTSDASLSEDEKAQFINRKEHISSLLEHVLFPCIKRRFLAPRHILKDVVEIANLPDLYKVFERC
T1 sequence 2: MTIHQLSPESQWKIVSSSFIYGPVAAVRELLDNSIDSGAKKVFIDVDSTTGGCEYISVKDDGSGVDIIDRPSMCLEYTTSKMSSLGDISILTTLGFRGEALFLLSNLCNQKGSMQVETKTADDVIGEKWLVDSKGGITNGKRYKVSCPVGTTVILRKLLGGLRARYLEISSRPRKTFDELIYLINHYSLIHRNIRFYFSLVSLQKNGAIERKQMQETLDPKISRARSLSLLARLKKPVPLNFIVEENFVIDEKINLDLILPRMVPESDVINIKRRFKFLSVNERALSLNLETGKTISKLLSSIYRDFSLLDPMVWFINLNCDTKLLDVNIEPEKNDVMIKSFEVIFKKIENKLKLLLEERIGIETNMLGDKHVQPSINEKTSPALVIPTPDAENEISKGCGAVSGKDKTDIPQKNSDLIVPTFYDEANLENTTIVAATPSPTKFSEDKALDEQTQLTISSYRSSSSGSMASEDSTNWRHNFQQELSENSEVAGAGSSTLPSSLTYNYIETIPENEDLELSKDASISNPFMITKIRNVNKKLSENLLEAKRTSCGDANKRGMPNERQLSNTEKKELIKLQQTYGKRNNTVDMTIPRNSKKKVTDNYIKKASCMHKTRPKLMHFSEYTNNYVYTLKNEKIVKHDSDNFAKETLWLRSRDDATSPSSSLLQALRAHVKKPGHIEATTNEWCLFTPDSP

His-Mlh1;Strep-Mlh2 = biological target: T2, His-Mlh1;Strep-Mlh2 (Saccharomyces cerevisiae;Saccharomyces …, UniProt P38920;Q07980 1-769;1-695, |); test: as above; conditions: protein: recombinant;recombinant; tags: N-terminal 6xHis;N-terminal Twin-StrepII; copies: 1;1; label: 5'-FAM on strand 1; synthetic D-loop of 4 annealed oligos
T2 sequence 1: T1 sequence 1
T2 sequence 2: T1 sequence 2

Mer3 = biological target: T3, Mer3 (Saccharomyces cerevisiae, UniProt P51979 1-1187); test: EMSA; no Mg or ATP; high affinity; EMSA: 25 mM HEPES pH 7.5, 0.1 ug/ul BSA, 60 mM NaCl, 10 nM DNA, 20 min at 30 C; 0.8% agarose in 1x TAE; Mer3 37.5-300 nM, Mlh1-Mlh2 20-150 nM; conditions: protein: recombinant; tags: C-terminal Twin-StrepII; label: 5'-FAM on strand 1; synthetic D-loop of 4 annealed oligos
T3 sequence: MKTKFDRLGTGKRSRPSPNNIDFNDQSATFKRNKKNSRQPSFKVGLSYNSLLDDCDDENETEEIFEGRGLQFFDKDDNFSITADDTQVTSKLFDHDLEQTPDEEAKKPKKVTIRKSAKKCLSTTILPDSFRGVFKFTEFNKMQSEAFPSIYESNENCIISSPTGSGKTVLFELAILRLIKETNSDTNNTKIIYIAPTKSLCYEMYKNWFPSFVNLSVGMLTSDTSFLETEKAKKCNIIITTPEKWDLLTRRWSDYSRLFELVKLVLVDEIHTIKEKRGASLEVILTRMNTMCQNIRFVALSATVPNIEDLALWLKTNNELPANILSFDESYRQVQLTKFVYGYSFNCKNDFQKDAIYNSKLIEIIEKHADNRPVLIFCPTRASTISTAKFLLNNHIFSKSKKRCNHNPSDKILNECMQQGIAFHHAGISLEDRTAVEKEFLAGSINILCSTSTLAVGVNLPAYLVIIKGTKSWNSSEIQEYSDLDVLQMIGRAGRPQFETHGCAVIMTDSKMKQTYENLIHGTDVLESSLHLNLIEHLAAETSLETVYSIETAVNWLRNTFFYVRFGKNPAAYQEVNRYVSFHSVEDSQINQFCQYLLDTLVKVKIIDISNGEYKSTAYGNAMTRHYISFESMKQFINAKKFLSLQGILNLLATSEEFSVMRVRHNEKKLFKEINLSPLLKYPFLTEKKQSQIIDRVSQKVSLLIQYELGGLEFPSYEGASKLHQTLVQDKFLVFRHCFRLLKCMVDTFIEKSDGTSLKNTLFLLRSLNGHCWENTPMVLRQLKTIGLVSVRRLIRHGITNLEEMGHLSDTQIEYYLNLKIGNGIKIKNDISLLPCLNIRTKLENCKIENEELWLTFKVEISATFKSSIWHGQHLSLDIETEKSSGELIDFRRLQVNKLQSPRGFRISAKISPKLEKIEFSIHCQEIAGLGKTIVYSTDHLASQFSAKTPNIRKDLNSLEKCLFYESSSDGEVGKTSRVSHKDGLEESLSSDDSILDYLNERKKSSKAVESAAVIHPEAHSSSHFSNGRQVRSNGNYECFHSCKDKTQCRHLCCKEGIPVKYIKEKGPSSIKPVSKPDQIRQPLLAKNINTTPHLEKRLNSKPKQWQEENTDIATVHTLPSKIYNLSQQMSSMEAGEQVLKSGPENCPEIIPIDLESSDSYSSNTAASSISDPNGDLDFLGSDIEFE

Measured: binding result

B1: D-loop (1253-T, 315, 320, X12-3SC) (mixed)
DNA 1: GGGTCAACGTGGGCAAAGATGTCCTAGCAATGTAATCGTCTATGACGTT
DNA 2: AACGTCATAGACGATGATCCGATGCATATCCGCCTGCCCACGTTGACCC
DNA 3: GCGATAGTCTCTAGACAGCATGTCCTAGCAATACATTGCTAGGACATCTT
DNA 4: TTGCTAGGACATGCTGTCTAGAGACTATCGC
binds: all assays above
